Experimental data: US20110262447A1
Like-named read-outs stand apart in the source and are kept apart here.

B1: F2 scFv (scFv)
scFv: VQLLESGGGLVQPGGSLRLSCAASGFTFSGYWMHWVRQAPGKGLEWVSEISGSGDSTHYGDSVKGRFTISRDNSKNTLYLQMNSLRAEDTAVYYCARGRNGSLDYWGQGTLVTVSSGSAGGGGSGGGGSGGGGSDIVLTQPPSASGTPGQRVTISCSGTSSNIGADYDVHWYQQLPGKAPKLLIYDNNKRPSGVSDRFSGSKSGTSASLAISGLRSEDEADYYCAAWDSSLSSVVFGGGTQLTV
B2: E6 scFv (scFv)
scFv: VQLLESGGGLVQPGGSLRLSCAASGFTFSGYWMHWVRQAPGKGLEWVSEISGSGDSTHYGDSVKGRFTISRDNSKNTLYLQMNSLRAEDTAVYYCARGRNGSLDYWGQGTLVTVSSGSAGGGGSGGGGSGGGGSDIVLTQPPSASGTPGQRVTISCSGSSSNIGAGYDVHWYQQLPGTAPKLLIYGNTNRPSGVSDRFSGSKSGTSASLAISGLRSEDEADYYCQSFDSTLSGPVFGGGTKVTV
B3: A6 scFv (scFv)
scFv: VQLLESGGGLVQPGGSPRLSCAASGFTFSGYWMHWVRQAPGKGLEWVSEISGSGDSTHYGDSVKGRFTISRDNSKNTLYLQMNSLRAEDTAVYYCARGRNGSLDYWGQGTLVTVSSGSAGGGGSGGGGSGGGGSDIVLTQPPSASGTPGQRVTISCTGGRFNIGDYAVNWYQQLPGKAPKLLIYDNDRRPSGVSDRFSGSKSGTSASLAISGLRSEDEADYYCAAWDDSLDGLVFGGGTQLTV

Legend:
[1] = target: T1, FRHSVV peptide, the common epitope of mutant p53 (biotin conjugate) (human)
[2] = target: T1, FRHSVV peptide, the common epitope of …; assay: BIAcore SPR

Binder	Kd [1] [nM]	Kd [2] [nM]
B1	11	
B2	4.6e-05	
B3		23
